Test results taken from patent US11319551B2, “Methods and compositions for PPO herbicide tolerance in plants” (Monsanto Technology LLC, priority 2015, dated 2022).
Where a chain is given by its changes, count along the chain named. Where two headings read alike, the source gives them in different places.

Assays:
[1] = tested on: hemG knockout E. coli strain; format: cell-based
[2] = tested on: transgenic soybean plants; test: S-3100 tolerance of transformed soybean plantlets at five weeks; format: in vivo; parameters: key to Tolerance score to S-3100 at 5 weeks: 0 for poor tolerance, high damage, low green coloration; 1 for some tolerance, average damage, moderate green coloration; 2 for good tolerance, low damage, high green coloration; conditions: for tolerance to the PPO herbicide in high-throughput screening at five weeks: S-3100, over the constructs with different transit peptides; for Tolerance score to S-3100 at 5 weeks: day four post application
Description: (§1) The microbial HemY PPO enzymes were expressed in transgenic soybean plants, and the transgenic plants were analyzed for PPO herbicide tolerance. […] For plant transformation, the nucleotide sequences encoding the HemY PPO enzymes were codon optimized for dicot expression. This permitted the side-by-side comparison of the seven different HemY PPO enzymes with thirty-nine different targeting peptides using the same promoter and 3′UTR elements for gene expression
(§2) The plant transformation constructs were used to transform soybean excised embryos (germplasm A3555) using A. tumefaciens and standard methods known in the art. Four hundred explants were inoculated for each construct resulting in twelve containers per construct. A sterile PPO herbicide solution was used for herbicide tolerance testing. The herbicide solution consisted of 0.3 g of S-3100 in crop oil concentrate (5.0 mL) and 495 mL of deionized water. This was filtered through a 0.45 micron Nalgene® Rapid-Flow™ Tissue Culture Filter Unit and Surfactant-Free Cellulose Acetate membrane filter unit (VWR, Radnor, Pa., USA). The resulting sterile solution was shaken before application.
At five weeks post-transformation, four of the twelve plant containers per construct were sprayed with two passes of the sterile PPO herbicide solution. The treated plantlets were then enclosed in the container and received at least 15 hours of light exposure post spray each day for four days. At the end of day four post application of S-3100, the treated plantlets were photographed and scored on a visual scale of green coloration (green coloration was representative of healthy photosynthetic plant tissue as compared to photo-bleached tissue) versus damage. The scoring values were 0 for poor tolerance, high damage, low green coloration; 1 for some tolerance, average damage, moderate green coloration; and 2 for good tolerance, low damage, high green coloration. The results of herbicide application of S-3100 at five weeks is presented in Table 5, where n.d. indicates the analysis was not conducted.

[3] = tested on: transgenic soybean plants; test: S-3100 herbicide injury of R0 transgenic soybean plants at eleven weeks; format: in vivo; conditions: for tolerance to the PPO herbicide, R0 plants at eleven weeks: S-3100, injury rating compared with non-transgenic control (30% or above); for Tolerance score to S-3100 at 11 weeks (herbicide injury rating): R0 plants, seven days after treatment
Description: as §1, §2
Plants in the non-sprayed containers corresponding to constructs having a high passing score of 2 and a few fails as negative controls were transplanted at approximately 7 weeks post transformation. The R0 plants were grown in a greenhouse under long-day nursery conditions (18 hr light at 80° F. then 6 hr dark at 74° F.) for approximately four weeks. At eleven weeks, the R0 plants were sprayed with two passes of the same herbicide solution (0.3 g of S-3100) described above. Herbicide injury ratings were collected seven days after treatment. Any injury rating of 30% or above was equivalent to non-transgenic soybean injury ratings. The results of the herbicide tolerance application at eleven weeks to the R0 plants are presented in Table 6, where n.d. indicates the analysis was not conducted.

[4] = PPO enzyme assay, apparent Km for substrate; format: biochemical; conditions: substrate protoporphyrinogen
[5] = acifluorfen, flumioxazin, lactofen, or fomesafen, saturating amount

B1: R1 N311: microbial HemY protoporphyrinogen oxidase, SEQ ID NO:16 (protein, listed as Bacillus atrophaeus)
chain: MSDGKKHLVIIGGGITGLASAFYMEKEIREKNLPLSVTLVEASPRVGGKIQTARKDGYIIERGPDSFLERKKSAPELVEDLGLEHLLVNNATGQSYVLVNETLHPMPKGAVMGIPTKIAPFMSTGLFSFSGKARAAMDFVLPASKPKEDQSLGEFFRRRVGDEVVENLIEPLLSGIYAGDIDRLSLMSTFPQFYQTEQKHRSLILGMKKTRPQGSGQRLTAKKQGQFQTLKTGLQTLVEELENQLKLTKVYKGTKVTNISRGEKGCSIALDNGMTLDADAAIVTSPHKSAAGMFPDLPAVSQLKDMHSTSVANVALGFPQEAVQMEHEGTGFVISRNSDFSITACTWTNKKWPHSAPEGKTLLRAYVGKAGDESIVELSDNEIIKIVLEDLKKVMKIKGEPEMTCVTRWNESMPQYHVGHKQRIKKVREALAASYPGVYMTGASFEGVGIPDCIDQGKSAVSDVLAYLFG
growth rate of hemG knockout E. coli strain in presence of PPO herbicide [1, 5]: did not grow

B2: R1N333: microbial HemY PPO, SEQ ID NO:17 in bacterial assay; truncated SEQ ID NO:21 in soybean (protein, listed as Bacillus atrophaeus)
chain: B1 chain with G125R, R218Q, G470E
growth rate of hemG knockout E. coli strain in presence of PPO herbicide [1, 5]: did not grow
tolerance to the PPO herbicide in high-throughput screening at five weeks [2]: did not provide tolerance
Tolerance score to S-3100 at 5 weeks ([2]; targeting peptide TP2): 0
Tolerance score to S-3100 at 5 weeks ([2]; targeting peptide TP3): 0
Tolerance score to S-3100 at 5 weeks ([2]; targeting peptide TP4): 0
Tolerance score to S-3100 at 5 weeks ([2]; targeting peptide TP6): 0
Tolerance score to S-3100 at 5 weeks ([2]; targeting peptide TP7): 0
Tolerance score to S-3100 at 5 weeks ([2]; targeting peptide TP8): 0
Tolerance score to S-3100 at 5 weeks ([2]; targeting peptide TP9): 1
Tolerance score to S-3100 at 5 weeks ([2]; targeting peptide TP11): 0
Tolerance score to S-3100 at 5 weeks ([2]; targeting peptide TP12): 1
Tolerance score to S-3100 at 5 weeks ([2]; targeting peptide TP13): 0
Tolerance score to S-3100 at 5 weeks ([2]; targeting peptide TP14): 0
Tolerance score to S-3100 at 5 weeks ([2]; targeting peptide TP15): 0
Tolerance score to S-3100 at 5 weeks ([2]; targeting peptide TP16): 0
Tolerance score to S-3100 at 5 weeks ([2]; targeting peptide TP17): 0
Tolerance score to S-3100 at 5 weeks ([2]; targeting peptide TP18): 0
Tolerance score to S-3100 at 5 weeks ([2]; targeting peptide TP19): 0
Tolerance score to S-3100 at 5 weeks ([2]; targeting peptide TP21): 0
Tolerance score to S-3100 at 5 weeks ([2]; targeting peptide TP22): 0
Tolerance score to S-3100 at 5 weeks ([2]; targeting peptide TP23): 1
Tolerance score to S-3100 at 5 weeks ([2]; targeting peptide TP24): 0
Tolerance score to S-3100 at 5 weeks ([2]; targeting peptide TP25): 0
Tolerance score to S-3100 at 5 weeks ([2]; targeting peptide TP26): 0
Tolerance score to S-3100 at 5 weeks ([2]; targeting peptide TP27): 1
Tolerance score to S-3100 at 5 weeks ([2]; targeting peptide TP28): 0
Tolerance score to S-3100 at 5 weeks ([2]; targeting peptide TP29): 1
Tolerance score to S-3100 at 5 weeks ([2]; targeting peptide TP30): 0
Tolerance score to S-3100 at 5 weeks ([2]; targeting peptide TP31): 1
Tolerance score to S-3100 at 5 weeks ([2]; targeting peptide TP32): 0
Tolerance score to S-3100 at 5 weeks ([2]; targeting peptide TP33): 0
Tolerance score to S-3100 at 5 weeks ([2]; targeting peptide TP34): 1
Tolerance score to S-3100 at 5 weeks ([2]; targeting peptide TP36): 1
tolerance to the PPO herbicide, R0 plants at eleven weeks [3]: did not provide tolerance
Tolerance score to S-3100 at 11 weeks (herbicide injury rating) ([3]; targeting peptide TP8): 35%
Tolerance score to S-3100 at 11 weeks (herbicide injury rating) ([3]; targeting peptide TP9): 35%
Tolerance score to S-3100 at 11 weeks (herbicide injury rating) ([3]; targeting peptide TP14): 35%

B3: A. tuberculatus PPO: wild-type protoporphyrinogen oxidase from Amaranthus tuberculatus (WH), SEQ ID NO:80, negative control expressed in E. coli (protein, listed as Amaranthus tuberculatus)
chain: MGNISEREEPTSAKRVAVVGAGVSGLAAAYKLKSHGLSVTLFEADSRAGGKLKTVKKDGFIWDEGANTMTESEAEVSSLIDDLGLREKQQLPISQNKRYIARDGLPVLLPSNPAALLTSNILSAKSKLQIMLEPFLWRKHNATELSDEHVQESVGEFFERHFGKEFVDYVIDPFVAGTCGGDPQSLSMHHTFPEVWNIEKRFGSVFAGLIQSTLLSKKEKGGENASIKKPRVRGSFSFQGGMQTLVDTMCKQLGEDELKLQCEVLSLSYNQKGIPSLGNWSVSSMSNNTSEDQSYDAVVVTAPIRNVKEMKIMKFGNPFSLDFIPEVTYVPLSVMITAFKKDKVKRPLEGFGVLIPSKEQHNGLKTLGTLFSSMMFPDRAPSDMCLFTTFVGGSRNRKLANASTDELKQIVSSDLQQLLGTEDEPSFVNHLFWSNAFPLYGHNYDSVLRAIDKMEKDLPGFFYAGNHKGGLSVGKAMASGCKAAELVISYLDSHIYVKMDEKTA
sensitivity to PPO herbicides (negative control) ([1]; all of the PPO herbicides): sensitive to all of the PPO herbicides

B4: R2N70: microbial HemY protoporphyrinogen oxidase, SEQ ID NO:3 (protein, listed as Bacillus subtilis)
chain: MSDGKKHVVIIGGGITGLAAAFYMEKEIKEKNLPLELTLVEASPRVGGKIQTVKKDGYIIERGPDSFLERKKSAPQLVKDLGLEHLLVNNATGQSYVLVNRTLHPMPKGAVMGIPTKIAPFVSTGLFSLSGKARAAMDFILPASKTKDDQSLGEFFRRRVGDEVVENLIEPLLSGIYAGDIDKLSLMSTFPQFYQTEQKHRSLILGMKKTRPQGSGQQLTAKKQGQFQTLSTGLQTLVEEIEKQLKLTKVYKGTKVTKLSHSGSGYSLELDNGVTLDADSVIVTAPHKAAAGMLSELPAISHLKNMHSTSVANVALGFPEGSVQMEHEGTGFVISRNSDFAITACTWTNKKWPHAAPEGKTLLRAYVGKAGDESIVDLSDNDIINIVLEDLKKVMNINGEPEMTCVTRWHESMPQYHVGHKQRIKELREALASAYPGVYMTGASFEGVGIPDCIDQGKAAVSDALTYLFS
growth rate of hemG knockout E. coli strain in presence of PPO herbicide ([1]; acifluorfen and S-3100): slower
tolerance to acifluorfen and S-3100 compared with strain containing R2N30 or R2N40 ([1]; acifluorfen and S-3100): much better
tolerance to the PPO herbicide in high-throughput screening at five weeks [2]: provided tolerance
Tolerance score to S-3100 at 5 weeks ([2]; targeting peptide TP2): 2
Tolerance score to S-3100 at 5 weeks ([2]; targeting peptide TP3): 1
Tolerance score to S-3100 at 5 weeks ([2]; targeting peptide TP4): 0
Tolerance score to S-3100 at 5 weeks ([2]; targeting peptide TP6): 0
Tolerance score to S-3100 at 5 weeks ([2]; targeting peptide TP8): 0
Tolerance score to S-3100 at 5 weeks ([2]; targeting peptide TP16): 0
Tolerance score to S-3100 at 5 weeks ([2]; targeting peptide TP21): 0
Tolerance score to S-3100 at 5 weeks ([2]; targeting peptide TP31): 1
Tolerance score to S-3100 at 5 weeks ([2]; targeting peptide TP33): 0
tolerance to the PPO herbicide, R0 plants at eleven weeks [3]: did not provide tolerance
Tolerance score to S-3100 at 11 weeks (herbicide injury rating) ([3]; targeting peptide TP2): 30%

B5: E. coli HemG: E. coli PPO enzyme HemG (protoporphyrinogen IX dehydrogenase; GenBank Accession No. WP_021498199), SEQ ID NO:76 (protein, listed as Escherichia coli)
chain: MKTLILFSTRDGQTREIASYLASELKELGIQADVANVHRIEEPQWENYDRVVIGASIRYGHYHSAFQEFVKKHATRLNSMPSAFYSVNLVARKPEKRTPQTNSYARKFLMNSQWRPDRCAVIAGALRYPRYRWYDRFMIKLIMKMSGGETDTRKEVVYTDWEQVANFAREIAHLTDKPTLK
growth rate of hemG knockout E. coli strain in presence of PPO herbicide [1, 5]: normal growth rates
Km [4]: 1.6 µM
